Paper PMC9426524

Substrate: CC(=O)C=O
Assay: purified protein

B1: (Homo sapiens) (protein)
chain: MASKRALVILAKGAEEMETVIPVDVMRRAGIKVTVAGLAGKDPVQCSRDVVICPDASLEDAKKEGPYDVVVLPGGNLGAQNLSESAAVKEILKEQENRKGLIAAICAGPTALLAHEIGFGSKVTTHPLAKDKMMNGGHYTYSENRVEKDGLILTSRGPGTSFEFALAIVEALNGKEVAAQVKAPLVLKD
Q: How did the Km turn out when B1 was run?
A: 340 ± 40 µM

Q: And the kcat?
A: 0.126 ± 0.004 s⁻¹
